According to PMC3124540, “A Minimum of Three Motifs Is Essential for Optimal Binding of Pseudomurein Cell Wall-Binding Domain of Methanothermobacter thermautotrophicus” (PLoS ONE, 2011):

Target: the molecule itself
Assay: SEC; Superdex 200 10/300 GL, room temperature, 50 mM NaH2PO4, 150 mM NaCl, pH 7.0; calibrated with globular proteins

B1: three pseudomurein binding motifs with C-terminal ten-Histidine tag (3P-His10), the PMB domain of MTH719 (domain or fragment, Methanothermobacter thermautotrophicus)
chain: MGGGFAASVKISVRQLTDAASWVRAYYGRYGRLPGKVTISGHGYSMAQFLYLLCRATVNINAGNVAPISVKSVASAPASGGWYRHGRLYRSSYVRVAKNILSFIDSRGRAPNYAITGLGRIPFQRLVYMYSKIIKFYGTNKRLPNYVTI
notes: short N-terminal peptide region resulting from the cloning procedure (LIC); also called PMB domain 3P-His10; 3P-His10 PMB domain; source: E. coli Rosetta gami 2 (pBADcLIC, arabinose induced), purified (Ni-NTA); not shown: His10, C-terminal, kept
binding result: binds
